We go through 4 molecules from US20160193292A1 (CURATORS OF THE UNIVERSITY OF MISSOURI, published 2016).

First the molecules themselves.
B1: MLK-3 (enzyme, UniProt Q80XI6 1-850, looked up)
chain: MEPLKNLFLKSPLGSWNGSGSGGGGGTGGVRPEGSPKATAAYANPVWTALFDYEPNGQDELALRKGDRVEVLSRDAAISGDEGWWAGQVGGQVGIFPSNYVSRGGGPPPCEVASFQELRLEEVIGIGGFGKVYRGSWRGELVAVKAARQDPDEDISVTAESVRQEARLFAMLAHPNIIALKAVCLEEPNLCLVMEYAAGGPLSRALAGRRVPPHVLVNWAVQIARGMHYLHCEALVPVIHRDLKSNNILLLQPIEGDDMEHKTLKITDFGLAREWHKTTQMSAAGTYAWMAPEVIKASTFSKGSDVWSFGVLLWELLTGEVPYRGIDCLAVAYGVAVNKLTLPIPSTCPEPFAQLMADCWAQDPHRRPDFASILQQLEALEAQVLREMPRDSFHSMQEGWKREIQGLFDELRAKEKELLSREEELTRAAREQRSQAEQLRRREHLLAQWELEVFERELTLLLQQVDRERPHVRRRRGTFKRSKLRARDGGERISMPLDFKHRITVQASPGLDRRRNVFEVGAGDSPTFPRFRAIQLEPTESGQTWGRQSPRRLEDSSNGERRACWAWGPSSPKPGEAQNGRRRSRMDEATWYLDSDDSSPLGSPSTPPALNGNPPRPSPEPEEPRRAGPTERGNSSGTPKLIQRALLRGTALLASLGLGRDLQPPGGLSRERGESPTAPPPAQMPSPCPPELPSTPLIRLSQTTPDAHSSPTPGPLLLDLGVPSGQPSAKSPRREETRGRTVSPPPGISRSAPGTPGTPRSPPLGLISRPRPSPLRSRIDPWSFVSAGPRPSPLPSPQPAPRRAPWTLFPDSDPFWDSPPANPFRGGSQDCRTQTKDMGAQAPWAPEAGP
notes: Endogenous protein in T-cell lysates; also called MAP3K protein MLK-3
B2: JNK-interacting protein 1 (JIP-1) (other, UniProt Q9WVI9 1-707, looked up)
chain: MAERESGLGGGAASPPAASPFLGLHIASPPNFRLTHDISLEEFEDEDLSEITDECGISLQCKDTLSLRPPRAGLLSAGSSGSAGSRLQAEMLQMDLIDAAGDTPGAEDDEEEEDDELAAQRPGVGPPKAESNQDPAPRSQGQGPGTGSGDTYRPKRPTTLNLFPQVPRSQDTLNNNSLGKKHSWQDRVSRSSSPLKTGEQTPPHEHICLSDELPPQGSPVPTQDRGTSTDSPCRRSAATQMAPPSGPPATAPGGRGHSHRDRIHYQADVRLEATEEIYLTPVQRPPDPAEPTSTFMPPTESRMSVSSDPDPAAYSVTAGRPHPSISEEDEGFDCLSSPERAEPPGGGWRGSLGEPPPPPRASLSSDTSALSYDSVKYTLVVDEHAQLELVSLRPCFGDYSDESDSATVYDNCASASSPYESAIGEEYEEAPQPRPPTCLSEDSTPDEPDVHFSKKFLNVFMSGRSRSSSAESFGLFSCVINGEEHEQTHRAIFRFVPRHEDELELEVDDPLLVELQAEDYWYEAYNMRTGARGVFPAYYAIEVTKEPEHMAALAKNSDWIDQFRVKFLGSVQVPYHKGNDVLCAAMQKIATTRRLTVHFNPPSSCVLEISVRGVKIGVKADDALEAKGNKCSHFFQLKNISFCGYHPKNNKYFGFITKHPADHRFACHVFVSEDSTKALAESVGRAFQQFYKQFVEYTCPTEDIYLE
notes: Endogenous protein in T-cell lysates
B3: Plenty of SH3 domains (POSH) (other)
chain: MDESALLDLLECPVCLERLDASAKVLPCQHTFCKRCLLGIVGSRNELRCPECRTLVGSGVDELPSNILLVRLLDGIKQRPWKPGPGGGGGTTCTNTLRAQGSTVVNCGSKDLQSSQCGQQPRVQAWSPPVRGIPQLPCAKALYNYEGKEPGDLKFSKGDIIILRRQVDENWYHGEVSGVHGFFPTNFVQIIKPLPQPPPQCKALYDFEVKDKEADKDCLPFAKDDVLTVIRRVDENWAEGMLADKIGIFPISYVEFNSAAKQLIEWDKPPVPGVDTAECPSATAQSTSASKHPDTKKNTRKRHSFTSLTMANKSSQGSQNRHSMEISPPVLISSSNPTAAARISELSGLSCSAPSQVHISTTGLIVTPPPSSPVTTGPAFTFPSDVPYQAALGSMNPPLPPPPLLAATVLASTPSGATAAVAAAAAAAAAAGMGPRPVMGSSEQIAHLRPQTRPSVYVAIYPYTPRKEDELELRKGEMFLVFERCQDGWYKGTSMHTSKIGVFPGNYVAPVTRAVTNASQAKVSMSTAGQASRGVTMVSPSTAGGPTQKPQGNGVAGNPSVVPTAVVSAAHIQTSPQAKVLLHMSGQMTVNQARNAVRTVAAHSQERPTAAVTPIQVQNAACLGPASVGLPHHSLASQPLPPMAGPAAHGAAVSISRTNAPMACAAGASLASPNMTSAMLETEPSGRTVTILPGLPTSPESAASACGNSSAGKPDKDSKKEKKGLLKLLSGASTKRKPRVSPPASPTLDVELGAGEAPLQGAVGPELPLGGSHGRVGSCPTDGDGPVAAGTAALAQDAFHRKTSSLDSAVPIAPPPRQACSSLGPVMNEARPVVCERHRVVVSYPPQSEAELELKEGDIVFVHKKREDGWFKGTLQRNGKTGLFPGSFVENI
notes: Endogenous scaffold protein precipitated or detected in T-cell lysates (Co-IP, IP-FCM); also called Sh3Rf1
B4: JNK1 (enzyme, UniProt Q91Y86 1-384, looked up)
chain: MSRSKRDNNFYSVEIGDSTFTVLKRYQNLKPIGSGAQGIVCAAYDAILERNVAIKKLSRPFQNQTHAKRAYRELVLMKCVNHKNIIGLLNVFTPQKSLEEFQDVYIVMELMDANLCQVIQMELDHERMSYLLYQMLCGIKHLHSAGIIHRDLKPSNIVVKSDCTLKILDFGLARTAGTSFMMTPYVVTRYYRAPEVILGMGYKENVDLWSVGCIMGEMVCHKILFPGRDYIDQWNKVIEQLGTPCPEFMKKLQPTVRTYVENRPKYAGYSFEKLFPDVLFPADSEHNKLKASQARDLLSKMLVIDASKRISVDEALQHPYINVWYDPSEAEAPPPKIPDKQLDEREHTIEEWKELIYKEVMDLEERTKNGVIRGQPSPLAQVQQ
notes: Endogenous protein in T-cell lysates; also called 46KD JNK1

The target in assay [1] is B3. As to the kind of experiment: IP-FCM with α-POSH beads in the presence of Tat-POSH.
Assay [2] deals with B3. As to the kind of experiment: IP-FCM with α-POSH beads, lysates of stimulated OT-I T cells.
Description: Associated proteins were assessed by immunoblot. […] Data shown are representative of 6 independent experiments. […] Red histogram represents primary analyte and is shown to serve as a bead loading control.
A further assay addresses Rac1 (UniProt P63001 1-189). The assay can be described thus: Co-IP with antibodies against Rac1 and immunoblot, OT-I blasts re-stimulated with OVA-Tet/α-CD28.
In assay [3] the target is B2. The assay can be described thus: IP-FCM with α-JIP-1 beads in the presence of Tat-POSH.

Description for Rac1: The beads were incubated with the lysates washed and probed with antibodies against the Co-IP target. The levels of associated molecules (secondary analyte/Co-IP target) were quantified relative to IP target (primary analyte/loading control). Specificity was determined by comparison to both isotype and negative control antibodies (FIG. 5 and FIG. 6). […] Shaded histogram represents the staining of an isotype control. […] These two negative controls were used to establish significance of shift above background.
Associated proteins were assessed by immunoblot.

With B1, in assay [1], the binding result was “binds”.

Take B2: in assay [2], the binding result is given as “binds”.

On to B3, for which the binding result with Rac1 is recorded as “binds”.

In the case of B4, the binding result in assay [3] and in assay [2] was “binds” throughout.
